From patent US20190374606A1

Key:
[1] = target: TrkC (NIH-TrkC cells); assay: cell-based or functional assay
[2] = target: TrkA (NIH-TrkA cells); assay: flow cytometry competition on NIH-TrkA cells; 20 nM Biotin-NT3 tracer, 3-fold excess unlabeled competitor; value is the Biotin-NT3 signal remaining
[3] = target: TrkC (NIH-TrkC cells); assay: flow cytometry competition on NIH-TrkC cells; 20 nM Biotin-NT3 tracer, 200 nM unlabeled competitor; value is the Biotin-NT3 binding remaining
[4] = target: TrkA (NIH-TrkA cells); assay: flow cytometry competition on NIH-TrkA cells; 20 nM Biotin-NT3 tracer, 3-fold excess unlabeled competitor; value is the Biotin-NT3 binding remaining
[5] = target: TrkC (NIH-TrkC cells); assay: flow cytometry competition on NIH-TrkC cells; 20 nM Biotin-NT3 tracer, 200 nM unlabeled competitor; value is the Biotin-NT3 signal remaining
[6] = target: p75 (NIH-p75 cells); assay: flow cytometry (fluorescent avidin) on NIH-p75 cells; 20 nM Biotin-NT3, no competitor
[7] = target: TrkA (NIH-TrkA cells); assay: flow cytometry (fluorescent avidin) on NIH-TrkA cells; 20 nM Biotin-NT3, no competitor
[8] = target: TrkC (NIH-TrkC cells); assay: flow cytometry (fluorescent avidin) on NIH-TrkC cells; 20 nM Biotin-NT3, no competitor
[9] = target: p75 (NIH-p75 cells); assay: flow cytometry competition on NIH-p75 cells; 20 nM Biotin-NT3 tracer, 200 nM unlabeled competitor; value is the Biotin-NT3 signal remaining
[10] = target: p75 (NIH-p75 cells); assay: flow cytometry competition on NIH-p75 cells; 20 nM Biotin-NT3 tracer, 200 nM unlabeled competitor; value is the Biotin-NT3 binding remaining

| NIH-TrkA MCF [2] | % of maximal binding to TrkC [3] [%] | % of maximal binding to TrkA [4] [%] | NIH-TrkC MCF [5] | NIH-p75 MCF [6] | NIH-TrkA MCF [7] | NIH-TrkC MCF [8] | NIH-p75 MCF [9] | % of maximal binding to p75 [10] [%] | Binder | % survival at 0.1 nM, TrkC-expressing cells in serum free media [1] [%] |
| --- | --- | --- | --- | --- | --- | --- | --- | --- | --- | --- |
| 20 | 18 | 36 | 25 | – | – | – | – | – | Wild type NT-3 (Neurotrophin 3, mature form) (ligand) YAEHKSHRGEYSVCDSESLWVTDKSSAIDIRGHQVTVLGEIKTGNSPVKQYFYETRCKEARPVKNGCRGIDDKHWNSQCKTSQTYVRALTSENNKLVGWRWIRIDTSCVCALSRKIGRT | 34 |
| – | – | – | – | 76 | 38 | 93 | – | – | Biotin-NT-3 (wild type NT-3 covalently linked to biotin) (ligand, biotin, site not given) YAEHKSHRGEYSVCDSESLWVTDKSSAIDIRGHQVTVLGEIKTGNSPVKQYFYETRCKEARPVKNGCRGIDDKHWNSQCKTSQTYVRALTSENNKLVGWRWIRIDTSCVCALSRKIGRT | – |
| 16 | 13 | – | – | – | – | – | 69 | 89 | NT-3 mutant (SEQ ID NO: 23) (ligand) YAEHKSHRGEYSVCASESLWVTDKSSAIDIRGHQVTVLGEIKTGNSPVKQYFYETRCKEARPVKNGCRGIDDKHWNSQCKTSQTYVRALTSENNKLVGWRWIRIDTSCVCALSAAIGRT | – |
